Reference: US20020128201A1 (GREEN PEPTIDE, published 2002)

T1: HLA-A2402 (human, UniProt P04439-2 25-302 at identity 0.92))
T1 MHC heavy: not shown


Molecular target: T1, HLA-A2402
Experiment: cell-based or functional assay

Row | lowest peptide concentration at which enhancement of IFN-γ production by KE4-CTLs was detected (peptide-pulsed ClR/A2402 cells) | Binder
1 | ~1 nM | TFDYLRSVL [Lck486-494]
2 | ≥ 100 nM | HYTNASDGL [Lck208-216]
3 | ~1 nM | DYLRSVLEDF [Lck488-497]
